In the supplement of paper PMC9233669:
This sample holds only a part of the variants without activity.

Tests used:
biotinyl-Trp-oxazolone = test: self-aminoacylation, catalytic enhancement (BWO) (fold over background); higher = more active; k-Seq, kA / k0A0; sequences stand for … in GGGAAUGGAUCCACAUCUACGAAUUC…UUCACUGCAGACUUGACGAAGCUG
Summary of the method: (§1)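 Mutagenized RNA pools (0.43 μM; 21-nt variable region) were treated with 2–1250 μM of each biotinyl-aminoacyl-oxazolone. Conditions were 50 μL HEPES/NaCl/KCl/MgCl2/CaCl2 buffer, 5% acetonitrile, pH 6.9–7.0, room temperature, 90 minutes. Catalytic enhancement, the median kA relative to the uncatalyzed rate, was derived from streptavidin capture, qPCR and Illumina sequencing.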

biotinyl-Met-oxazolone = test: self-aminoacylation, catalytic enhancement (BMO) (fold over background); higher = more active; k-Seq, kA / k0A0; sequences stand for … in GGGAAUGGAUCCACAUCUACGAAUUC…UUCACUGCAGACUUGACGAAGCUG
Summary of the method: as §1

biotinyl-Ile-oxazolone = test: self-aminoacylation, catalytic enhancement (BIO) (fold over background); higher = more active; k-Seq, kA / k0A0; sequences stand for … in GGGAAUGGAUCCACAUCUACGAAUUC…UUCACUGCAGACUUGACGAAGCUG
Summary of the method: as §1

biotinyl-Leu-oxazolone = test: self-aminoacylation, catalytic enhancement (BLO) (fold over background); higher = more active; k-Seq, kA / k0A0; sequences stand for … in GGGAAUGGAUCCACAUCUACGAAUUC…UUCACUGCAGACUUGACGAAGCUG
Summary of the method: as §1

biotinyl-Phe-oxazolone = test: self-aminoacylation, catalytic enhancement (BFO) (fold over background); higher = more active; k-Seq, kA / k0A0; sequences stand for … in GGGAAUGGAUCCACAUCUACGAAUUC…UUCACUGCAGACUUGACGAAGCUG
Summary of the method: as §1

biotinyl-Val-oxazolone = test: self-aminoacylation, catalytic enhancement (BVO) (fold over background); higher = more active; k-Seq, kA / k0A0; sequences stand for … in GGGAAUGGAUCCACAUCUACGAAUUC…UUCACUGCAGACUUGACGAAGCUG
Summary of the method: as §1

Sequence: CUACUUCAAACAAUCGAUCUC [Fam1A.1 aminoacylation ribozyme variant]
- self-aminoacylation (biotinyl-Trp-oxazolone): 0.881
- self-aminoacylation (biotinyl-Met-oxazolone): 0.322
- self-aminoacylation (biotinyl-Ile-oxazolone): 0.502
- self-aminoacylation (biotinyl-Leu-oxazolone): 0.5
- self-aminoacylation (biotinyl-Phe-oxazolone): 2.76
- self-aminoacylation (biotinyl-Val-oxazolone): 0.799

Sequence: CUACUUCAAACAAUCGGUACG [Fam1A.1 aminoacylation ribozyme variant]
- self-aminoacylation (biotinyl-Trp-oxazolone): 0.839
- self-aminoacylation (biotinyl-Met-oxazolone): 0.396
- self-aminoacylation (biotinyl-Ile-oxazolone): 0.461
- self-aminoacylation (biotinyl-Leu-oxazolone): 0.425
- self-aminoacylation (biotinyl-Phe-oxazolone): 2.05
- self-aminoacylation (biotinyl-Val-oxazolone): 0.577

Sequence: CUACUUCAAACAAUCGGUAUA [Fam1A.1 aminoacylation ribozyme variant]
- self-aminoacylation (biotinyl-Trp-oxazolone): 0.725
- self-aminoacylation (biotinyl-Met-oxazolone): 0.607
- self-aminoacylation (biotinyl-Ile-oxazolone): 0.772
- self-aminoacylation (biotinyl-Leu-oxazolone): 0.661
- self-aminoacylation (biotinyl-Phe-oxazolone): 1.24
- self-aminoacylation (biotinyl-Val-oxazolone): 0.688

Sequence: CUACUUCAAACAAUCGGUAUU [Fam1A.1 aminoacylation ribozyme variant]
- self-aminoacylation (biotinyl-Trp-oxazolone): 0.759
- self-aminoacylation (biotinyl-Met-oxazolone): 0.852
- self-aminoacylation (biotinyl-Ile-oxazolone): 0.854
- self-aminoacylation (biotinyl-Leu-oxazolone): 0.74
- self-aminoacylation (biotinyl-Phe-oxazolone): 1.15
- self-aminoacylation (biotinyl-Val-oxazolone): 0.828

Sequence: CUACUUCAAACAAUCGGUUAG [Fam1A.1 aminoacylation ribozyme variant]
- self-aminoacylation (biotinyl-Trp-oxazolone): 1.46
- self-aminoacylation (biotinyl-Met-oxazolone): 0.591
- self-aminoacylation (biotinyl-Ile-oxazolone): 0.706
- self-aminoacylation (biotinyl-Leu-oxazolone): 0.493
- self-aminoacylation (biotinyl-Phe-oxazolone): 2.89
- self-aminoacylation (biotinyl-Val-oxazolone): 0.614

Sequence: CUACUUCAAACAAUCGGUUCG [Fam1A.1 aminoacylation ribozyme variant]
- self-aminoacylation (biotinyl-Trp-oxazolone): 0.98
- self-aminoacylation (biotinyl-Met-oxazolone): 0.615
- self-aminoacylation (biotinyl-Ile-oxazolone): 0.687
- self-aminoacylation (biotinyl-Leu-oxazolone): 0.63
- self-aminoacylation (biotinyl-Phe-oxazolone): 2.97
- self-aminoacylation (biotinyl-Val-oxazolone): 0.767

Sequence: CUACUUCAAACAAUCGGUUUG [Fam1A.1 aminoacylation ribozyme variant]
- self-aminoacylation (biotinyl-Trp-oxazolone): 23.9
- self-aminoacylation (biotinyl-Met-oxazolone): 1.08
- self-aminoacylation (biotinyl-Ile-oxazolone): 1.07
- self-aminoacylation (biotinyl-Leu-oxazolone): 1.54
- self-aminoacylation (biotinyl-Phe-oxazolone): 43.4
- self-aminoacylation (biotinyl-Val-oxazolone): 1.1

Sequence: CUACUUCAAACAAUCUGUAUG [Fam1A.1 aminoacylation ribozyme variant]
- self-aminoacylation (biotinyl-Trp-oxazolone): 0.471
- self-aminoacylation (biotinyl-Met-oxazolone): 0.647
- self-aminoacylation (biotinyl-Ile-oxazolone): 0.642
- self-aminoacylation (biotinyl-Leu-oxazolone): 0.607
- self-aminoacylation (biotinyl-Phe-oxazolone): 0.672
- self-aminoacylation (biotinyl-Val-oxazolone): 0.73

Sequence: CUACUUCAAACAAUGGGUGUG [Fam1A.1 aminoacylation ribozyme variant]
- self-aminoacylation (biotinyl-Trp-oxazolone): 0.947
- self-aminoacylation (biotinyl-Met-oxazolone): 1.32
- self-aminoacylation (biotinyl-Ile-oxazolone): 1.29
- self-aminoacylation (biotinyl-Leu-oxazolone): 1.34
- self-aminoacylation (biotinyl-Phe-oxazolone): 0.967
- self-aminoacylation (biotinyl-Val-oxazolone): 1.08

Sequence: CUACUUCAAACAAUUCGUCUG [Fam1A.1 aminoacylation ribozyme variant]
- self-aminoacylation (biotinyl-Trp-oxazolone): 0.602
- self-aminoacylation (biotinyl-Met-oxazolone): 0.722
- self-aminoacylation (biotinyl-Ile-oxazolone): 0.827
- self-aminoacylation (biotinyl-Leu-oxazolone): 0.628
- self-aminoacylation (biotinyl-Phe-oxazolone): 0.738
- self-aminoacylation (biotinyl-Val-oxazolone): 0.859

Sequence: CUACUUCAAACACUCGCUCUG [Fam1A.1 aminoacylation ribozyme variant]
- self-aminoacylation (biotinyl-Trp-oxazolone): 0.468
- self-aminoacylation (biotinyl-Met-oxazolone): 1.06
- self-aminoacylation (biotinyl-Ile-oxazolone): 0.924
- self-aminoacylation (biotinyl-Leu-oxazolone): 0.708
- self-aminoacylation (biotinyl-Phe-oxazolone): 1.16
- self-aminoacylation (biotinyl-Val-oxazolone): 0.818

Sequence: CUACUUCAAACACUCGGUCUU [Fam1A.1 aminoacylation ribozyme variant]
- self-aminoacylation (biotinyl-Trp-oxazolone): 1.18
- self-aminoacylation (biotinyl-Met-oxazolone): 1.81
- self-aminoacylation (biotinyl-Ile-oxazolone): 1.71
- self-aminoacylation (biotinyl-Leu-oxazolone): 1.49
- self-aminoacylation (biotinyl-Phe-oxazolone): 1.56
- self-aminoacylation (biotinyl-Val-oxazolone): 1.74

Sequence: CUACUUCAAACAGUCGGCCUG [Fam1A.1 aminoacylation ribozyme variant]
- self-aminoacylation (biotinyl-Trp-oxazolone): 1.39
- self-aminoacylation (biotinyl-Met-oxazolone): 1.77
- self-aminoacylation (biotinyl-Ile-oxazolone): 1.63
- self-aminoacylation (biotinyl-Leu-oxazolone): 1.78
- self-aminoacylation (biotinyl-Phe-oxazolone): 2.1
- self-aminoacylation (biotinyl-Val-oxazolone): 1.71

Sequence: CUACUUCAAACAGUCGGUCUA [Fam1A.1 aminoacylation ribozyme variant]
- self-aminoacylation (biotinyl-Trp-oxazolone): 0.576
- self-aminoacylation (biotinyl-Met-oxazolone): 0.856
- self-aminoacylation (biotinyl-Ile-oxazolone): 0.938
- self-aminoacylation (biotinyl-Leu-oxazolone): 0.817
- self-aminoacylation (biotinyl-Phe-oxazolone): 0.734
- self-aminoacylation (biotinyl-Val-oxazolone): 0.893

Sequence: CUACUUCAAACAGUCGGUCUC [Fam1A.1 aminoacylation ribozyme variant]
- self-aminoacylation (biotinyl-Trp-oxazolone): 0.456
- self-aminoacylation (biotinyl-Met-oxazolone): 0.765
- self-aminoacylation (biotinyl-Ile-oxazolone): 0.903
- self-aminoacylation (biotinyl-Leu-oxazolone): 1.02
- self-aminoacylation (biotinyl-Phe-oxazolone): 0.732
- self-aminoacylation (biotinyl-Val-oxazolone): 0.8

Sequence: CUACUUCAAACAGUGGGUCUG [Fam1A.1 aminoacylation ribozyme variant]
- self-aminoacylation (biotinyl-Trp-oxazolone): 0.989
- self-aminoacylation (biotinyl-Met-oxazolone): 0.764
- self-aminoacylation (biotinyl-Ile-oxazolone): 0.995
- self-aminoacylation (biotinyl-Leu-oxazolone): 0.935
- self-aminoacylation (biotinyl-Phe-oxazolone): 0.834
- self-aminoacylation (biotinyl-Val-oxazolone): 0.823

Sequence: CUACUUCAAACAUGCGGUCUG [Fam1A.1 aminoacylation ribozyme variant]
- self-aminoacylation (biotinyl-Trp-oxazolone): 0.769
- self-aminoacylation (biotinyl-Met-oxazolone): 1.39
- self-aminoacylation (biotinyl-Ile-oxazolone): 1.27
- self-aminoacylation (biotinyl-Leu-oxazolone): 1.61
- self-aminoacylation (biotinyl-Phe-oxazolone): 3.21
- self-aminoacylation (biotinyl-Val-oxazolone): 1.34

Sequence: CUACUUCAAACAUUCGCUCUG [Fam1A.1 aminoacylation ribozyme variant]
- self-aminoacylation (biotinyl-Trp-oxazolone): 0.81
- self-aminoacylation (biotinyl-Met-oxazolone): 1.12
- self-aminoacylation (biotinyl-Ile-oxazolone): 1.07
- self-aminoacylation (biotinyl-Leu-oxazolone): 1.24
- self-aminoacylation (biotinyl-Phe-oxazolone): 3.16
- self-aminoacylation (biotinyl-Val-oxazolone): 0.985

Sequence: CUACUUCAAACAUUCGGUCCG [Fam1A.1 aminoacylation ribozyme variant]
- self-aminoacylation (biotinyl-Trp-oxazolone): 1.52
- self-aminoacylation (biotinyl-Met-oxazolone): 0.978
- self-aminoacylation (biotinyl-Ile-oxazolone): 0.823
- self-aminoacylation (biotinyl-Leu-oxazolone): 0.959
- self-aminoacylation (biotinyl-Phe-oxazolone): 0.323
- self-aminoacylation (biotinyl-Val-oxazolone): 0.884

Sequence: CUACUUCAAACCAUCAGUCUG [Fam1A.1 aminoacylation ribozyme variant]
- self-aminoacylation (biotinyl-Trp-oxazolone): 0.593
- self-aminoacylation (biotinyl-Met-oxazolone): 0.695
- self-aminoacylation (biotinyl-Ile-oxazolone): 0.847
- self-aminoacylation (biotinyl-Leu-oxazolone): 0.762
- self-aminoacylation (biotinyl-Phe-oxazolone): 1.08
- self-aminoacylation (biotinyl-Val-oxazolone): 0.768

Sequence: CUACUUCAAACCAUCGGUCUG [Fam1A.1 aminoacylation ribozyme variant]
- self-aminoacylation (biotinyl-Trp-oxazolone): 0.673
- self-aminoacylation (biotinyl-Met-oxazolone): 0.702
- self-aminoacylation (biotinyl-Ile-oxazolone): 0.794
- self-aminoacylation (biotinyl-Leu-oxazolone): 0.661
- self-aminoacylation (biotinyl-Phe-oxazolone): 0.956
- self-aminoacylation (biotinyl-Val-oxazolone): 0.833

Sequence: CUACUUCAAACCAUGGGUCUG [Fam1A.1 aminoacylation ribozyme variant]
- self-aminoacylation (biotinyl-Trp-oxazolone): 0.564
- self-aminoacylation (biotinyl-Met-oxazolone): 0.765
- self-aminoacylation (biotinyl-Ile-oxazolone): 0.966
- self-aminoacylation (biotinyl-Leu-oxazolone): 0.827
- self-aminoacylation (biotinyl-Phe-oxazolone): 0.455
- self-aminoacylation (biotinyl-Val-oxazolone): 0.776

Sequence: CUACUUCAAACCAUUGGUCUG [Fam1A.1 aminoacylation ribozyme variant]
- self-aminoacylation (biotinyl-Trp-oxazolone): 0.564
- self-aminoacylation (biotinyl-Met-oxazolone): 0.726
- self-aminoacylation (biotinyl-Ile-oxazolone): 0.883
- self-aminoacylation (biotinyl-Leu-oxazolone): 0.782
- self-aminoacylation (biotinyl-Phe-oxazolone): 1.03
- self-aminoacylation (biotinyl-Val-oxazolone): 0.891
